According to PMC11853200:
Values belong to the substance of their own block, whether it stands above or below them.

Assays:
[1] = target: Bs-MotS_(68–242), periplasmic fragment of the stator B-subunit MotS from Bacillus subtilis (Bacillus subtilis); assay: crystal structure; protein purified in 150 mM NaCl; crystals from 1.26 M ammonium sulfate, 0.1 M HEPES-NaOH pH 7.5, 293 K; solution containing 92 mM NaCl; 1.89 Å
[2] = target: Bs-MotS_(68–242), periplasmic fragment of the stator B-subunit MotS from Bacillus subtilis (Bacillus subtilis); assay: SEC; Superdex 75 10/300 GL, 20 mM Tris-HCl pH 8.0 with 300 mM KCl (no Na+), 0.6 mL/min; size markers ovalbumin (43 kDa) and IgG (158 kDa)
[3] = target: Bs-MotS_(68–242), periplasmic fragment of the stator B-subunit MotS from Bacillus subtilis (Bacillus subtilis); assay: crystal structure; protein purified in 300 mM NaCl; crystals from 20% PEG-8000, 0.1 M HEPES-NaOH pH 7.5, 293 K; soaked in 300 mM NaCl; 1.89 Å
[4] = target: Bs-MotS_(68–242), periplasmic fragment of the stator B-subunit MotS from Bacillus subtilis (Bacillus subtilis); assay: crystal structure; protein purified in 300 mM KCl; crystals from 40% PEG-300, 0.1 M Na2HPO4/citric acid pH 4.2, 293 K; soaked in 40 mM NaCl/300 mM KCl; 1.90 Å
[5] = target: Bs-MotS_(68–242), periplasmic fragment of the stator B-subunit MotS from Bacillus subtilis (Bacillus subtilis); assay: SEC; Superdex 75 10/300 GL, 20 mM Tris-HCl pH 8.0 with 300 mM NaCl, 0.6 mL/min; size markers ovalbumin (43 kDa) and IgG (158 kDa)
[6] = target: MotS_(68–242)(D70A) (Bacillus subtilis); assay: as above
[7] = target: MotS_(68–242)(E75A) (Bacillus subtilis); assay: as above
[8] = target: MotS_(68–242)(D70A/E75A) (Bacillus subtilis); assay: as above

stoichiometry N [1]: 2
stoichiometry N [2]: 2
stoichiometry N [3]: 2
stoichiometry N [4]: 2
stoichiometry N [5]: 2
Substance: Bs-MotS_(68–242), periplasmic fragment of the stator B-subunit MotS from Bacillus subtilis (domain or fragment)

stoichiometry N [6]: 2
Substance: MotS_(68–242)(D70A) (domain or fragment)

stoichiometry N [7]: 2
Substance: MotS_(68–242)(E75A) (domain or fragment)

stoichiometry N [8]: 2
Substance: MotS_(68–242)(D70A/E75A) (domain or fragment)
